Experimental data taken from US20220017635A1.

B1: 7A4v15 (antibody, from another filing, V domains shown)
VH: EVQLVQSGAEVKKPGASVKVSCKGSGYTFTDYAMHWVRQAPGQGLEWMGGISTYFGRTNYNQKFKGRVTMTVDTSISTAYMELSRLRSDDTAVYYCARGLSGNYVMDYWGQGTTVTVSS
VL: DIVMTQSPDSLAVSLGERATINCRASESVDSYGNSFMHWYQQKPGQPPKLLIYRASNLESGVPDRFSGSGSRTDFTLTISSLQAEDVAVYYCQQSNEAPPTFGQGTKLEIK
B2: 15G11v5 (antibody, from another filing, V domains shown)
VH: EVQLVQSGAEVKKPGASVKVSCKASGYTFTSYWMHWVRQAPGQRLEWIGEINPTNGRTNYIEKFKSRATLTVDKSASTAYMELSSLRSEDTAVYYCARGTRAYHYWGQGTMVTVSS
VL: DIQMTQSPSSLSASVGDRVTITCRASDNLYSNLAWYQQKPGKSPKLLVYDATNLADGVPSRFSGSGSGTDYTLTISSLQPEDFATYYCQHFWGTPLTFGQGTKVEIK
B3: 16F6v4 (antibody, from another filing, V domains shown)
VH: EVQLVESGPGLVKPSETLSLTCTVSGNSITSEYAWNWIRQPPGKGLEWIGYISYSGTTSYNPSLKSRVTISRDTSKNQLSLKLSSVTAADTAVYYCARYGYGNPATRYFDVWGQGTLVTVSS
VL: DIQMTQSPSSLSASVGDRVTITCRASKSISKYLAWYQQKPGKTNKLLLYSGSTLQSGVPSRFSGSGSGTDYTLTISSLQPEDFATYYCQQHNEYPWTFGQGTKVEIK

Tests used:
[1] = target: chimeric TfR A05 (human/mouse chimera) (UniProt P02786); assay: ELISA on immobilized chimeric TfR; grade = binding relative to His-huTfR (++ 0.5 or more, + 0.2 to less than 0.5)
Chain of chimeric TfR A05 (human/mouse chimera) (P02786 other isoform, or with tags, fused parts or gaps mutant): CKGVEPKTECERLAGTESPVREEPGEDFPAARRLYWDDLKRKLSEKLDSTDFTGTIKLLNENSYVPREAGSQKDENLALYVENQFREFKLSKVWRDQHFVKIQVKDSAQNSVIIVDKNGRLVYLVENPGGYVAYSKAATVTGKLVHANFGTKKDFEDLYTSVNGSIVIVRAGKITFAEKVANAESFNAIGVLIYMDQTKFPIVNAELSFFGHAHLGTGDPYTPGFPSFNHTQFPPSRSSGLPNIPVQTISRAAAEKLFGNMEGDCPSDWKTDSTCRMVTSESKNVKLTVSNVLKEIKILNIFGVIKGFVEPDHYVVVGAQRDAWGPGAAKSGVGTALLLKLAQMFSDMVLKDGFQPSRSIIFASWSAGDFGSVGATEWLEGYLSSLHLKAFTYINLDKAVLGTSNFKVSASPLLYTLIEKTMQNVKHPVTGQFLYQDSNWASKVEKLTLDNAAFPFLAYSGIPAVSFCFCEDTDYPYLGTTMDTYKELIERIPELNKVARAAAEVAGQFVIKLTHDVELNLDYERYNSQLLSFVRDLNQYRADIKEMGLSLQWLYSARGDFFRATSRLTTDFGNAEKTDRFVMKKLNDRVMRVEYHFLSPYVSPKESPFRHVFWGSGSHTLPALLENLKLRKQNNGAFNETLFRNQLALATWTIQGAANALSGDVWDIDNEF

[2] = target: huTfR with mouse protease-like domain (human/mouse chimera); assay: as above
Chain of huTfR with mouse protease-like domain (human/mouse chimera) (chain, as listed by the source mutant limits assumed): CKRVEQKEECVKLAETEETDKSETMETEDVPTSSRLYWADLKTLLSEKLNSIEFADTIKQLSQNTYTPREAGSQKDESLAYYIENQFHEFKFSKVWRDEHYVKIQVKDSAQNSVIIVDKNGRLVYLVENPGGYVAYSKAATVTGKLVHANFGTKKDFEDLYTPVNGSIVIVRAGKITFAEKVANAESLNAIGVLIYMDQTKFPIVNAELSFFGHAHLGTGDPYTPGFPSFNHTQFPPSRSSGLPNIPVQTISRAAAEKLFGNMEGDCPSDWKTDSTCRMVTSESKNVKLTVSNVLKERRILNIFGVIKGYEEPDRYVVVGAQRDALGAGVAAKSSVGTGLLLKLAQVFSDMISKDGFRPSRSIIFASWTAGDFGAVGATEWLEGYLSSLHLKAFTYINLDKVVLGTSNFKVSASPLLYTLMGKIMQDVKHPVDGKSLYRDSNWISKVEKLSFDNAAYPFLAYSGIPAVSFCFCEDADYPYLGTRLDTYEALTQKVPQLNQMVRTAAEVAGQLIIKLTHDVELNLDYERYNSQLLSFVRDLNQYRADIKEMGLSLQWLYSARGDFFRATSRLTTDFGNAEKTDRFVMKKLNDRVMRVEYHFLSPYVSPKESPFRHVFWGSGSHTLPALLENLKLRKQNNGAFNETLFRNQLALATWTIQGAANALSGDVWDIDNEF

[3] = target: chimeric TfR A07 (human/mouse chimera) (UniProt P02786); assay: as above
[4] = target: chimeric TfR A04 (human/mouse chimera) (UniProt P02786); assay: as above
Chain of chimeric TfR A04 (human/mouse chimera) (P02786 other isoform, or with tags, fused parts or gaps mutant): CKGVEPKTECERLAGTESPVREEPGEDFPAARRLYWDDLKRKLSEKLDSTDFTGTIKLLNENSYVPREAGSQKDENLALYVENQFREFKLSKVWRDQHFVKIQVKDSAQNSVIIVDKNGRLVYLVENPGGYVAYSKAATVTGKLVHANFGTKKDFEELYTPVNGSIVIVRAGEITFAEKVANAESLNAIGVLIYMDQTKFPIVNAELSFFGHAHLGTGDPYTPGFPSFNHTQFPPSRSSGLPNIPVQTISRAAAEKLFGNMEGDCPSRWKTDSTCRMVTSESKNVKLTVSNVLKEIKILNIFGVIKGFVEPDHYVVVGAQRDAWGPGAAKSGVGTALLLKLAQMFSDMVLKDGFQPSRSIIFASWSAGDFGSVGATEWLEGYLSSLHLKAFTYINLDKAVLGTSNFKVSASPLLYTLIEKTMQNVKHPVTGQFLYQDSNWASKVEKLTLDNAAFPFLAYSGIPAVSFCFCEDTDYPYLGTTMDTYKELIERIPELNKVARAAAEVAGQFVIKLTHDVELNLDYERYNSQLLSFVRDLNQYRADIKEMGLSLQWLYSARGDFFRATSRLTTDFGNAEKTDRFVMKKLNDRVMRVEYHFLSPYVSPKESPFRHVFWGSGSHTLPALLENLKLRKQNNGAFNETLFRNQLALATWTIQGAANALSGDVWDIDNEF

[5] = target: chimeric TfR A14 (human/mouse chimera) (UniProt P02786); assay: as above
Chain of chimeric TfR A14 (human/mouse chimera) (P02786 other isoform, or with tags, fused parts or gaps mutant): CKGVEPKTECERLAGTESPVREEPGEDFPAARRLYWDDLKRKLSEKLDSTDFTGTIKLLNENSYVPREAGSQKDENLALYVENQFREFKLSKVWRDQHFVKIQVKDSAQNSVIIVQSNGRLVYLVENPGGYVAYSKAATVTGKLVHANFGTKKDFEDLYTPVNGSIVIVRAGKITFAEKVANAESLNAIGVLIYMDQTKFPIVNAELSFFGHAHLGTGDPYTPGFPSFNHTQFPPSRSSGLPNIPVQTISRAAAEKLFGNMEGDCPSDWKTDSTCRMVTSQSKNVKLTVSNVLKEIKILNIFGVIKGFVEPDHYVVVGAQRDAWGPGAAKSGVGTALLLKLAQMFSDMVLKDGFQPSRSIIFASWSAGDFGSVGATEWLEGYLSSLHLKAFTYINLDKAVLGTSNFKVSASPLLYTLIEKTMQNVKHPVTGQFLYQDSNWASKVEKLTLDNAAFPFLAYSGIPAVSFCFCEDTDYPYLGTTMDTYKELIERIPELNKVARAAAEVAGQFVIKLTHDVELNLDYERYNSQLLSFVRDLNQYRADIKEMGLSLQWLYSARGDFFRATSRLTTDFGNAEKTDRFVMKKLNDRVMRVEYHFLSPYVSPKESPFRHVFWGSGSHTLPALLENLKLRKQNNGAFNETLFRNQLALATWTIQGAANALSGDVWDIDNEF

[6] = target: chimeric TfR A03 (human/mouse chimera) (UniProt P02786); assay: as above
Chain of chimeric TfR A03 (human/mouse chimera) (P02786 other isoform, or with tags, fused parts or gaps mutant): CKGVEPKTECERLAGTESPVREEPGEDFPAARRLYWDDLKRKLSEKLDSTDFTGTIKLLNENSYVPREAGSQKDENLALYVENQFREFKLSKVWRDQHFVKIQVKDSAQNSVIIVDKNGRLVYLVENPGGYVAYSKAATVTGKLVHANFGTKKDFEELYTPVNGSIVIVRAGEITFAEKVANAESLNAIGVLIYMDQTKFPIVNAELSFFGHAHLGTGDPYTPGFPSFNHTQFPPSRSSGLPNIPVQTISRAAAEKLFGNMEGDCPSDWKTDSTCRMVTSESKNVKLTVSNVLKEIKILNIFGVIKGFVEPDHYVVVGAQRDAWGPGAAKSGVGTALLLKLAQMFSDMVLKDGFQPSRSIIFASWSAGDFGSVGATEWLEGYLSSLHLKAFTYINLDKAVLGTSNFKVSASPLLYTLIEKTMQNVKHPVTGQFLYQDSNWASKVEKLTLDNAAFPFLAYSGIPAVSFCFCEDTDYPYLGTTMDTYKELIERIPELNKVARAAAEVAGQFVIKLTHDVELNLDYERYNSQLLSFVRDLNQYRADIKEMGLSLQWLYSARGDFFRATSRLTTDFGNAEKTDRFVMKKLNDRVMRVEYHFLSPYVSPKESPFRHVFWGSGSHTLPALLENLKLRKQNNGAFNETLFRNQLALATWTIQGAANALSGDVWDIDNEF

[7] = target: huTfR with mouse apical domain (human/mouse chimera) (UniProt P02786); assay: ELISA on immobilized chimeric TfR
Chain of huTfR with mouse apical domain (human/mouse chimera) (P02786 other isoform, or with tags, fused parts or gaps mutant): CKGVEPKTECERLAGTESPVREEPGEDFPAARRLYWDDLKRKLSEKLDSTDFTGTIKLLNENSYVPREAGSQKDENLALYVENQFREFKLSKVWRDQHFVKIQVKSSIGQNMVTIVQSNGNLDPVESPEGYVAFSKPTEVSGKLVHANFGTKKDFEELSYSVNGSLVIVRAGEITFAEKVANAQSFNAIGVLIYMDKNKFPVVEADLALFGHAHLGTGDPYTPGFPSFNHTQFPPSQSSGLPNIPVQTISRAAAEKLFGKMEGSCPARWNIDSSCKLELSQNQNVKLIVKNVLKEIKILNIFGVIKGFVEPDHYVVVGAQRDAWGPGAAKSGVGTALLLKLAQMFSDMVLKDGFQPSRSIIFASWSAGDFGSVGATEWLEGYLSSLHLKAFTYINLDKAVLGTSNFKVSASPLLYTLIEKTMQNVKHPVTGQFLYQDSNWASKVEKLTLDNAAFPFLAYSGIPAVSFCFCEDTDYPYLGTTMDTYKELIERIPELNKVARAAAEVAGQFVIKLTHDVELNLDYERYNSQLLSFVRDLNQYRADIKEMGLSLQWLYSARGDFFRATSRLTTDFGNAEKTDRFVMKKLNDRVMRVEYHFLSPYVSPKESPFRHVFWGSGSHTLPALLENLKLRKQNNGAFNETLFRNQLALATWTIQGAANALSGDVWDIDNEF

[8] = target: chimeric TfR A02 (human/mouse chimera) (UniProt P02786); assay: ELISA on immobilized chimeric TfR
Chain of chimeric TfR A02 (human/mouse chimera) (P02786 other isoform, or with tags, fused parts or gaps mutant): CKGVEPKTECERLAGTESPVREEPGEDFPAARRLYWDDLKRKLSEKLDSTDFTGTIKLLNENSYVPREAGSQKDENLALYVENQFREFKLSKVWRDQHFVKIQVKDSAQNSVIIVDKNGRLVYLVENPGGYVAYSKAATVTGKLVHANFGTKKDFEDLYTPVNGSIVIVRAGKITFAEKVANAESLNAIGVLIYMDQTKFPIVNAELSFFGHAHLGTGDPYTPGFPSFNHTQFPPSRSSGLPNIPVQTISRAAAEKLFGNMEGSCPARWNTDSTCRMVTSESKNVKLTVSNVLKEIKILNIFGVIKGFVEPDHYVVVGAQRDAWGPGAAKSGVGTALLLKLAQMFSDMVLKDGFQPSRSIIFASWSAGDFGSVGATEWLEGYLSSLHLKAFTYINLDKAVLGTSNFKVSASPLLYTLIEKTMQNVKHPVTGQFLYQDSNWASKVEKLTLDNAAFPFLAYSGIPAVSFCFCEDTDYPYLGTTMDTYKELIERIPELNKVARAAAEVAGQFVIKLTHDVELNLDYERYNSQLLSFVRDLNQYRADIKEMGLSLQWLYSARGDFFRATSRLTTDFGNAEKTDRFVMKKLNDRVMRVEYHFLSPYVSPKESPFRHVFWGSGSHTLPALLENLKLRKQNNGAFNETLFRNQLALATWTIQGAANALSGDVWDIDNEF

[9] = target: chimeric TfR A04 (human/mouse chimera) (UniProt P02786); assay: ELISA on immobilized chimeric TfR
[10] = target: chimeric TfR A03 (human/mouse chimera) (UniProt P02786); assay: ELISA on immobilized chimeric TfR

Row | Binder | ratio of ELISA binding activity (A450-A570) to chimeric TfR over that to His-huTfR [1] | ratio of ELISA binding activity (A450-A570) to chimeric TfR over that to His-huTfR [2] | ratio of ELISA binding activity (A450-A570) to chimeric TfR over that to His-huTfR [3] | ratio of ELISA binding activity (A450-A570) to chimeric TfR over that to His-huTfR [4] | ratio of ELISA binding activity (A450-A570) to chimeric TfR over that to His-huTfR [5] | ratio of ELISA binding activity (A450-A570) to chimeric TfR over that to His-huTfR [6] | ratio of ELISA binding activity (A450-A570) to chimeric TfR over that to His-huTfR [7] | ratio of ELISA binding activity (A450-A570) to chimeric TfR over that to His-huTfR [8] | ratio of ELISA binding activity (A450-A570) to chimeric TfR over that to His-huTfR [9] | ratio of ELISA binding activity (A450-A570) to chimeric TfR over that to His-huTfR [10]
1 | B1 | > 0.5 | > 0.5 | 0.2 to 0.5 | 0.2 to 0.5 | > 0.5 | > 0.5 | < 0.2 | < 0.2 |  | 
2 | B2 | > 0.5 | > 0.5 | 0.2 to 0.5 |  | > 0.5 |  | < 0.2 | < 0.2 | < 0.2 | < 0.2
3 | B3 | > 0.5 | > 0.5 | > 0.5 | 0.2 to 0.5 | > 0.5 | > 0.5 | < 0.2 | < 0.2 |  | 
